Results as given in patent publication US20090175866A1, “TREATMENT OF B-CELL MALIGNANCIES” (priority 2004, published 2009).

Tests used:
[1] = biological target: FGFR3 (as measured by BIAcore, Table 1) (UniProt P22607); test: BIAcore
[2] = biological target: FGFR3 (as measured by BIAcore, Table 1) (UniProt P22607); test: BIAcore (receptor not given)
[3] = biological target: FGFR3-G394D expressed on B9 cells, P22607; test: cell-based or functional assay
Sequence of FGFR3-G394D expressed on B9 cells, P22607 (P22607 23-806, stated change not applied): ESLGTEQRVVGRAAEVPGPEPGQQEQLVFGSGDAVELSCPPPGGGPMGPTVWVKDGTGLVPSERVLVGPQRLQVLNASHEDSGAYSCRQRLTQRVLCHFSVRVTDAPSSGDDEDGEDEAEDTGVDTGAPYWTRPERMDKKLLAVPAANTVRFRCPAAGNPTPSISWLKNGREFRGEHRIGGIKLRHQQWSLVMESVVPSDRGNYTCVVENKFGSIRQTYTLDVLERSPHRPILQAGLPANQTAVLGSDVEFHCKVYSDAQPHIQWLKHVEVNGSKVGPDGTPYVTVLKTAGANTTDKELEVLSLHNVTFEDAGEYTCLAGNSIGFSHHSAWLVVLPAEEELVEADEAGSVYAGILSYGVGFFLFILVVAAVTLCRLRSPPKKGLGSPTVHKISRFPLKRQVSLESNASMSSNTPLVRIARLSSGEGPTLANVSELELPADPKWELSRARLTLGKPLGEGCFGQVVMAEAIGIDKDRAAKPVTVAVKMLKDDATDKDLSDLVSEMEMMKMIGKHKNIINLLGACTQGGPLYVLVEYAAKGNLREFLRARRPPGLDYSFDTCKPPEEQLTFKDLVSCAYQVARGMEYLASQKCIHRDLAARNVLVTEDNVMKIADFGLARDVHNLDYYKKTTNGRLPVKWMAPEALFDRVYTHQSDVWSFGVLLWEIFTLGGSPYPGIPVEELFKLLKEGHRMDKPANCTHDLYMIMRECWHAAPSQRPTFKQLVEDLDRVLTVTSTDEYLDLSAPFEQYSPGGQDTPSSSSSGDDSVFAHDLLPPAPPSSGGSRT

Binder | Kd [1] [nM] | koff [2] [s⁻¹] | IC50 of FGF-stimulated growth of B9 cells expressing G394D-FGFR3 [3] [µg/mL]
PRO-002 (Fab, V domains shown) VH: QVQLVQSGAEVKKPGASVKVSCKASGYTFTSYYMHWVRQAPGQGLEWMGWINPNSGGTNYAQKFQGRVTMTRDTSISTAYMELSSLRSEDTAVYYCARDFLGYEFDYWGQGTLVTVSS VL: DIELTQPPSVSVAPGQTARISCSGDALGDKYASWYQQKPGQAPVLVIYDDSDRPSGIPERFSGSNSGNTATLTISGTQAEDEADYYCQSYDYSADYVFGGGTKLTVLG | 37 | 0.02 | 
PRO-012 (Fab, V domains shown) VH: QVQLKESGPALVKPTQTLTLTCTFSGFSLSTSGVGVGWIRQPPGKALEWLALIDWDDDKYYSTSLKTRLTISKDTSKNQVVLTMTNMDPVDTATYYCARYHSWYEMGYYGSTVGYMFDYWGQGTLVTVSS VL: DIELTQPPSVSVAPGQTARISCSGDALGDKYASWYQQKPGQAPVLVIYDDSDRPSGIPERFSGSNSGNTATLTISGTQAEDEADYYCQSYDFDFAVFGGGTKLTVLG | 14 | 0.0023 | 
PRO-029 (Fab, V domains shown) VH: QVQLVQSGAEVKKPGASVKVSCKASGYTFTSYYMHWVRQAPGQGLEWMGWINPNSGGTNYAQKFQGRVTMTRDTSISTAYMELSSLRSEDTAVYYCARTWQYSYFYYLDGGYYFDIWGQGTLVTVSS VL: DIVLTQSPATLSLSPGERATLSCRASQSVSSSYLAWYQQKPGQAPRLLIYGASSRATGVPARFSGSGSGTDFTLTISSLEPEDFATYYCQQTNNAPVTFGQGTKVEIKR | 6 | 0.0014 | 
PRO-001 Fab (Fab, V domains shown) VH: QVQLQQSGPGLVKPSQTLSLTCAISGDSVSSNSAAWNWIRQSPGRGLEWLGRTYYRSKWYNDYAVSVKSRITINPDTSKNQFSLQLNSVTPEDTAVYYCARSYYPDFDYWGQGTLVTVSS VL: DIELTQPPSVSVAPGQTARISCSGDALGDKYASWYQQKPGQAPVLVIYDDSDRPSGIPERFSGSNSGNTATLTISGTQAEDEADYYCQSYDGPDLWVFGGGTKLTVLGQ |  |  | 3

The remaining lines, values ahead:

Kd [1] [nM] | koff [2] [s⁻¹] | IC50 of FGF-stimulated growth of B9 cells expressing G394D-FGFR3 [3] [µg/mL] | Binder
3.7 | 0.002 |  | PRO-054 (Fab, V domains shown) VH: QVQLVQSGAEVKKPGASVKVSCKASGYTFTSYYMHWVRQAPGQGLEWMGWINPNSGGTNYAQKFQGRVTMTRDTSISTAYMELSSLRSEDTAVYYCARNMAYTNYQYVNMPHFDYWGQGTLVTVSS VL: DIELTQPPSVSVAPGQTARISCSGDALGDKYASWYQQKPGQAPVLVIYDDSDRPSGIPERFSGSNSGNTATLTISGTQAEDEADYYCQSYDYFKLVFGGGTKLTVLG
4 | 0.0005 |  | PRO-026 (Fab, V domains shown) VH: QVQLVQSGAEVKKPGASVKVSCKASGYTFTSYYMHWVRQAPGQGLEWMGWINPNSGGTNYAQKFQGRVTMTRDTSISTAYMELSSLRSEDTAVYYCARGYWYAYFTYINYGYFDNWGQGTLVTVSS VL: DIALTQPASVSGSPGQSITISCTGTSSDVGGYNYVSWYQQHPGKAPKLMIYDVSNRPSGVSNRFSGSKSGNTASLTISGLQAEDEADYYCQSYDNNSDVVFGGGTKLTVLG
2.9 | 0.00074 |  | PRO-055 (Fab, V domains shown) VH: QVQLVQSGAEVKKPGASVKVSCKASGYTFTSYYMHWVRQAPGQGLEWMGWINPNSGGTNYAQKFQGRVTMTRDTSISTAYMELSSLRSEDTAVYYCARSMNSTMYWYLRRVLFDHWGQGTLVTVSS VL: DIALTQPASVSGSPGQSITISCTGTSSDVGGYNYVSWYQQHPGKAPKLMIYDVSNRPSGVSNRFSGSKSGNTASLTISGLQAEDEADYYCQSYDMYNYIVFGGGTKLTVLG
